# According to paper PMC12915131, “Balanced Expression of the Diiron Oxygenase BioE Is Essential for Biotin Homeostasis in Elizabethkingia meningoseptica”:
# Target: BioL (EmBioL), MocR-family repressor (Elizabethkingia meningoseptica, UniProt A0A1T3FDC7 1-495)
# Experiment: EMSA; PLP in protein elution buffer; 5 mM Mg2+; EMSA: 20 mM Tris-HCl pH 8.0, 50 mM KCl, 5 mM MgCl2, 1 mM DTT, 5% glycerol, room temperature 20 min; 5% native PAGE, GelRed stain
# Conditions: protein: recombinant; tags: tag-free after Ulp1 cleavage of GST-SUMO; chain copies: 2; blunt
row,Binder,binding result
1,PbioB probe (dsDNA) DNA 1: TGCTTTTATCAAACTCATGTGTAATTACTCTGGTAATCTATATGATTAAGATTTAGAAG DNA 2: CTTCTAAATCTTAATCATATAGATTACCAGAGTAATTACACATGAGTTTGATAAAAGCA,binds
2,PbioE probe (dsDNA) DNA 1: TTTTAAATCTGGTACCATTTAAGGTCCGGCAAGATAATAATTTTGCTTCAAAAAAGAG DNA 2: CTCTTTTTTGAAGCAAAATTATTATCTTGCCGGACCTTAAATGGTACCAGATTTAAAA,binds
